Experimental data reported in paper PMC5906670, “Structural basis of epilepsy-related ligand–receptor complex LGI1–ADAM22” (Nature Communications, 2018).

B1: LGI1 (wild type, pull-down with ADAM22/23 ECD-FLAG) [human] / ADAM22 ECD-FLAG [human] (parent complex)
chain 1: KKPAKPKCPAVCTCTKDNALCENARSIPRTVPPDVISLSFVRSGFTEISEGSFLFTPSLQLLLFTSNSFDVISDDAFIGLPHLEYLFIENNNIKSISRHTFRGLKSLIHLSLANNNLQTLPKDIFKGLDSLTNVDLRGNSFNCDCKLKWLVEWLGHTNATVEDIYCEGPPEYKKRKINSLSSKDFDCIITEFAKSQDLPYQSLSIDTFSYLNDEYVVIAQPFTGKCIFLEWDHVEKTFRNYDNITGTSTVVCKPIVIETQLYVIVAQLFGGSHIYKRDSFANKFIKIQDIEILKIRKPNDIETFKIENNWYFVVADSSKAGFTTIYKWNGNGFYSHQSLHAWYRDTDVEYLEIVRTPQTLRTPHLILSSSSQRPVIYQWNKATQLFTNQTDIPNMEDVYAVKHFSVKGDVYICLTRFIGDSKVMKWGGSSFQDIQRMPSRGSMVFQPLQINNYQYAILGSDYSFTQVYNWDAEKAKFVKFQELNVQAPRSFTHVSINKRNFLFASSFKGNTQIYKHVIVDLSA
chain 2: SKRQLRRYPRNVEEETKYIELMIVNDHLMFKKHRLSVVHTNTYAKSVVNMADLIYKDQLKTRIVLVAMETWATDNKFAISENPLITLREFMKYRRDFIKEKSDAVHLFSGSQFESSRSGAAYIGGICSLLKGGGVNEFGKTDLMAVTLAQSLAHNIGIISDKRKLASGECKCEDTWSGCIMGDTGYYLPKKFTQCNIEEYHDFLNSGGGACLFNKPSKLLDPPECGNGFIETGEECDCGTPAECVLEGAECCKKCTLTQDSQCSDGLCCKKCKFQPMGTVCREAVNDCDIRETCSGNSSQCAPNIHKMDGYSCDGVQGICFGGRCKTRDRQCKYIWGQKVTASDKYCYEKLNIEGTEKGNCGKDKDTWIQCNKRDVLCGYLLCTNIGNIPRLGELDGEITSTLVVQQGRTLNCSGGHVKLEEDVDLGYVEDGTPCGPQMMCLEHRCLPVASFNFSTCLSSKEGTICSGNGVCSNELKCVCNRHWIGSDCNTYFPHNDDAKTGITLSG

Variants of: B1
Assay: pull-down; anti-FLAG antibody agarose; proteins secreted from HEK293T cells; n = 4 independent experiments; read off a plot

Variant	percent of parent
chain 1 KKPAKPKCPAVCTCTKDNALCENARSIPRTVPPDVISLSFVRSGFTEISEGSFLFTPSLQLLLFTSNSFDVISDDAFIGLPHLEYLFIENNNIKSISRHTFRGLKSLIHLSLANNNLQTLPKDIFKGLDSLTNVDLRGNSFNCDCKLKWLVEWLGHTNATVEDIYCEGPPEYKKRKINSLSSKDFDCIITEFAKSQDLPYQSLSIDTFSYLNDEYVVIAQPFTGKCIFLEWDHVEKTFRNYDNITGTSTVVCKPIVIETQLYVIVAQLFGGSHIYKRDSFANKFIKIQDIEILKIRKPNDIETFKIENNWYFVVADSSKAGFTTIYKWNGNGFYSHQSLHAWYRDTDVEYLEIVRTPQTLRTPHLILSSSSQRPVIYQWNKATQLFTNQTDIPNMEDVYAVKHFSVKGDVYICLTRFIGDSKVMKWGGSSFQDIQRMPSRGSAVFQPLQINNYQYAILGSDYSFTQVYNWDAEKAKFVKFQELNVQAPRSFTHVSINKRNFLFASSFKGNTQIYKHVIVDLSA [chain 1 M443A]	~9 % of WT
chain 1 KKPAKPKCPAVCTCTKDNALCENARSIPRTVPPDVISLSFVRSGFTEISEGSFLFTPSLQLLLFTSNSFDVISDDAFIGLPHLEYLFIENNNIKSISRHTFRGLKSLIHLSLANNNLQTLPKDIFKGLDSLTNVDLRGNSFNCDCKLKWLVEWLGHTNATVEDIYCEGPPEYKKRKINSLSSKDFDCIITEFAKSQDLPYQSLSIDTFSYLNDEYVVIAQPFTGKCIFLEWDHVEKTFRNYDNITGTSTVVCKPIVIETQLYVIVAQLFGGSHIYKRDSFANKFIKIQDIEILKIRKPNDIETFKIENNWYFVVADSSKAGFTTIYKWNGNGFYSHQSLHAWYADTDVEYLEIVRTPQTLRTPHLILSSSSQRPVIYQWNKATQLFTNQTDIPNMEDVYAVKHFSVKGDVYICLTRFIGDSKVMKWGGSSFQDIQRMPSRGSMVFQPLQINNYQYAILGSDYSFTQVYNWDAEKAKFVKFQELNVQAPRSFTHVSINKRNFLFASSFKGNTQIYKHVIVDLSA [chain 1 R344A]	~33 % of WT

Further lines, results first:

percent of parent	Variant
~64 % of WT	chain 1 KKPAKPKCPAVCTCTKDNALCENARSIPRTVPPDVISLSFVRSGFTEISEGSFLFTPSLQLLLFTSNSFDVISDDAFIGLPHLEYLFIENNNIKSISRHTFRGLKSLIHLSLANNNLQTLPKDIFKGLDSLTNVDLRGNSFNCDCKLKWLVEWLGHTNATVEDIYCEGPPEYKKRKINSLSSKDFDCIITEFAKSQDLPYQSLSIDTFSYLNDEYVVIAQPFTGKCIFLEWDHVEKTFRNYDNITGTSTVVCKPIVIETQLYVIVAQLFGGSHIYKRDSFANKFIKIQDIEILKIRAPNDIETFKIENNWYFVVADSSKAGFTTIYKWNGNGFYSHQSLHAWYRDTDVEYLEIVRTPQTLRTPHLILSSSSQRPVIYQWNKATQLFTNQTDIPNMEDVYAVKHFSVKGDVYICLTRFIGDSKVMKWGGSSFQDIQRMPSRGSMVFQPLQINNYQYAILGSDYSFTQVYNWDAEKAKFVKFQELNVQAPRSFTHVSINKRNFLFASSFKGNTQIYKHVIVDLSA [chain 1 K297A]
~15 % of WT	chain 1 KKPAKPKCPAVCTCTKDNALCENARSIPRTVPPDVISLSFVRSGFTEISEGSFLFTPSLQLLLFTSNSFDVISDDAFIGLPHLEYLFIENNNIKSISRHTFRGLKSLIHLSLANNNLQTLPKDIFKGLDSLTNVDLRGNSFNCDCKLKWLVEWLGHTNATVEDIYCEGPPEYKKRKINSLSSKDFDCIITEFAKSQDLPYQSLSIDTFSYLNDEYVVIAQPFTGKCIFLEWDHVEKTFRNYDNITGTSTVVCKPIVIETQLYVIVAQLFGGSHIYKRDSFANKFIKIQDIEILKIAAPNDIETFKIENNWYFVVADSSKAGFTTIYKWNGNGFYSHQSLHAWYRDTDVEYLEIVRTPQTLRTPHLILSSSSQRPVIYQWNKATQLFTNQTDIPNMEDVYAVKHFSVKGDVYICLTRFIGDSKVMKWGGSSFQDIQRMPSRGSMVFQPLQINNYQYAILGSDYSFTQVYNWDAEKAKFVKFQELNVQAPRSFTHVSINKRNFLFASSFKGNTQIYKHVIVDLSA [chain 1 R296A, chain 1 K297A]
~4 % of WT	chain 1 KKPAKPKCPAVCTCTKDNALCENARSIPRTVPPDVISLSFVRSGFTEISEGSFLFTPSLQLLLFTSNSFDVISDDAFIGLPHLEYLFIENNNIKSISRHTFRGLKSLIHLSLANNNLQTLPKDIFKGLDSLTNVDLRGNSFNCDCKLKWLVEWLGHTNATVEDIYCEGPPEYKKRKINSLSSKDFDCIITEFAKSQDLPYQSLSIDTFSYLNDEYVVIAQPFTGKCIFLEWDHVEKTFRNYDNITGTSTVVCKPIVIETQLYVIVAQLFGGSHIYKRDSFANKFIKIQDIEILKIRKPNDIETFKIENNWYFVVADSSKAGFTTIYKWNGNGFYSHQSLHAWYRDTDVEYLEIVRTPQTLRTPHLILSSSSQRPVIYQWNKATQLFTNQTDIPNMEDVAAVKHFSVKGDVYICLTRFIGDSKVMKWGGSSFQDIQRMPSRGSMVFQPLQINNYQYAILGSDYSFTQVYNWDAEKAKFVKFQELNVQAPRSFTHVSINKRNFLFASSFKGNTQIYKHVIVDLSA [chain 1 Y399A]
